Drawing on article PMC9929448, this text covers IC50 of Noggin (0.16 to 160 nM) on ALP activity and Alizarin Red staining (calcium deposition) of ATDC5 cells stimulated with 10 nM WT BMP-2, day 7 and IC50 of Noggin (0.16 to 160 nM) on ALP activity and Alizarin Red staining (calcium deposition) of ATDC5 cells stimulated with 10 nM N102D BMP-2, day 7 for one molecule.

Assay [1] deals with T1, Bone morphogenetic protein 2 (BMP-2), wild type, mature form (human).
T1 sequence (P12643 whole entry, looked up): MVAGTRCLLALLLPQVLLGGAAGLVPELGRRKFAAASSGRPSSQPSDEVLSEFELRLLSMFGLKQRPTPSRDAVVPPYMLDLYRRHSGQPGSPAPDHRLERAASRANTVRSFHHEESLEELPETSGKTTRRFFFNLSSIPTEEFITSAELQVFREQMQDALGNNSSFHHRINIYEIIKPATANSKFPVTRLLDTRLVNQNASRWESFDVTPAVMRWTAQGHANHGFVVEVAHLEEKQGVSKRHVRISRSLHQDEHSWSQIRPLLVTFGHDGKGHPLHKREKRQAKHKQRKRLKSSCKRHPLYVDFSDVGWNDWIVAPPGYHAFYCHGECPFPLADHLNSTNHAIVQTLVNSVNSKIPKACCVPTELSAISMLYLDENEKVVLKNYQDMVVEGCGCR

Assay [2] concerns the target BMP-2 N102D mutant, mature form (human).

B1: Noggin (residues 28-232) (natural protein)
chain: MQHYLHIRPAPSDNLPLVDLIEHPDPIFDPKEKDLNETLLRSLLGGHYDPGFMATSPPEDRPGGGGGAAGGAEDLAELDQLLRQRPSGAMPSEIKGLEFSEGLAQGKKQRLSKKLRRKLQMWLWSQTFCPVLYAWNDLGSRFWPRYVKVGSCFSKRSCSVPEGMVCKPSKSVHLTVLRWRCQRRGGQRCGWIPIQYPIISECKCSC
modifications: biotin (biotinylated Noggin in the BLI experiments); methionine oxidation, mainly on the N-terminal methionine, in part of the sample
For B1, the IC50 of Noggin (0.16 to 160 nM) on ALP activity and Alizarin Red staining (calcium deposition) of ATDC5 cells stimulated with 10 nM WT BMP-2, day 7 in assay [1] is 8 nM. The IC50 of Noggin (0.16 to 160 nM) on ALP activity and Alizarin Red staining (calcium deposition) of ATDC5 cells stimulated with 10 nM N102D BMP-2, day 7 in assay [2] came to 8 nM.
